Results on 3 molecules are retold here after PMC5638241, “Chlorophyte aspartyl aminopeptidases: Ancient origins, expanded families, new locations, and secondary functions” (PLoS ONE, 2017).

Data set [1] deals with Arabidopsis thaliana aspartyl aminopeptidase 2, mature (without transit peptide), with N-terminal His6 (His6-DAP2) (Arabidopsis thaliana). The data set can be described thus: native gel or EMSA; series of native polyacrylamide gels (4, 4.5, 5 and 6% acrylamide) of Ni-NTA-purified His6-DAPs; masses from relative mobilities and retardation coefficients (Hedrick and Smith; Bryan), BSA and urease as mass standards. On the technique in general: Mobility shift assays separate free from complexed probe on a gel.

Substrate in data set [2]: N[C@@H](CC(=O)O)C(=O)Nc1ccc([N+](=O)[O-])cc1
Nature of the data set: purified protein. In kind it is biochemical, Arabidopsis thaliana. Conditions: 50 mM Tris-HCl pH 8.0, enzyme pre-activated with 0.5 mM MnCl2.

Data set [3] deals with the molecule itself. The data set can be described thus: native gel or EMSA; series of native polyacrylamide gels (4, 4.5, 5 and 6% acrylamide) of Ni-NTA-purified His6-DAPs; masses from relative mobilities and retardation coefficients (Hedrick and Smith; Bryan), BSA and urease as mass standards.

A word on the stoichiometry N: it is a count of units in the complex or per binding partner. “Arabidopsis thaliana aspartyl aminopeptidase 2, mature (without transit peptide), with N-terminal His6 (His6-DAP2) (enzyme)” yielded a stoichiometry N in data set [1] of 12.

B1: Arabidopsis thaliana aspartyl aminopeptidase 1 with N-terminal His6 (His6-DAP1) (enzyme, UniProt Q9LST0 1-477, looked up)
chain: MDKSSLVSDFLSFLNASPTAFHAVDESKRRLLKAGYEQISERDDWKLEAGKKYFFTRNYSTIVAFAIGHKYVAGNGFHIIGAHTDSPCLKLKPVSKITKGGCLEVGVQTYGGGLWYTWFDRDLTVAGRVILKEEKAGSVSYSHRLVRIEDPIMRIPTLAIHLDRNVNTEGFKPNTQTHLVPVLATAIKAELNKTPAESGEHDEGKKCAETSSKSKHHPLLMEIIANALGCKPEEICDFELQACDTQPSILAGAAKEFIFSGRLDNLCMSFCSLKALIDATSSGSDLEDESGIRMVALFDHEEVGSNSAQGAGSPVMIDAMSHITSCFSSDTKVLKKAIQKSLLVSADMAHALHPNFMDKHEENHQPKMHGGLVIKHNANQRYATNAVTSFVFREIAEKHNLPVQDFVVRNDMGCGSTIGPILASSVGIRTVDVGAPQLSMHSIREMCAADDVKHSYEHFKAFFQEFTHLDAKLTIDV
notes: AtDAP1 (At5g60160), M18 aspartyl aminopeptidase of Arabidopsis thaliana ecotype Columbia; entire coding region of the DAP1 cDNA (nucleotides 86 to 1519 of NM_125409) cloned into pET28; Monomer 54.6 kDa as printed; also called AtDAP1; At5g60160; source: E. coli BL21[DE3]pLys, purified (Ni-NTA, 100-kDa MWCO Centricon); not shown: His6, N-terminal, kept; copies: 12
For orientation: Km means the substrate concentration at which the rate is half of its maximum. On to B1, for which the Km in data set [2] was determined as 1250 µM. Moreover, the “stoichiometry N” value in data set [3] was 12.

B2: His6-DAP2 (mature AtDAP2) (Arabidopsis thaliana) (protein)
chain: ASIVGDLLDYLNESWTQFHATAEAKRQLLAAGFDLLSENEDWNLKPGGRYFFTRNMSCLVAFAVGEKYVPGNGFHAIAAHTDSPCLKLKPKSASSKSGYLMVNVQTYGGGLWHTWFDRDLSVAGRAIVRASDGSFVHRLVKVKRPLLRVPTLAIHLDRTVNSDGFKPNLETQLVPLLATKSDESSAESKDKNVSSKDAHHPLLMQILSDDLDCKVEDIVSLELNICDTQPSCLGGANNEFIFSGRLDNLASSFCALRALIDSCESSENLSTEHDIRMIALFDNEEVGSDSCQGAGAPTMFQAMRRIVSSLGNKQVTECTFDRAIRKSFLVSADMAHGVHPNFADKHEENHRPQLHKGLVIKHNANQRYATSGITSFLFKEVAKLHDLPIQEFVVRNDMGCGSTIGPILASGVGIRTVDCGIAQLSMHSVREICGTDDIDIAYRHFKAFYRSFSSVDKKLVVDD
notes: mature form without 63-residue transit peptide, N-terminal His6 fusion (pET28), E. coli BL21(DE3)pLysS, Ni-NTA; no tag removal mentioned
Broadly, the kcat/Km is the second-order rate constant that governs catalysis at low substrate concentration. For the molecule B2, in data set [2], the Km stood at 210 µM and the kcat/Km came out at 3.47e+07 M⁻¹ s⁻¹.
